{"source": "patent US10487307B2", "about": "“Culture method for pluripotent stem cells” (FUJIFILM CORPORATION, priority 2013, dated 2019)", "molecules": {"B1": {"name": "RCP-21: comparative polypeptide, SEQ ID NO: 26; positions 1-459, having the sequence of human vitronectin (protein)", "chain": "GPLGDQESCKGRCTEGFNVDKKCQCDELCSYYQSCCTDYTAECKPQVTRGDVFTMPEDEYTVYDDGEEKNNATVHEQVGGPSLTSDLQAQSKGNPEQTPVLKPEEEAPAPEVGASKPEGIDSRPETLHPGRPQPPAEEELCSGKPFDAFTDLKNGSLFAFRGQYCYELDEKAVRPGYPKLIRDVWGIEGPIDAAFTRINCQGKTYLFKGSQYWRFEDGVLDPDYPRNISDGFDGIPDNVDAALALPAHSYSGRERVYFFKGKQYWEYQFQHQPSQEECEGSSLSAVFEHFAMMQRDSWEDIFELLFWGRTSAGTRQPQFISRDWHGVPGQVDAAMAGRIYISGMAPRPSLAKKQRFRHRNRKGYRSQRGHSRGRNQNSRRPSRATWLSLFSSEESNLGANNYDDYRMDWLVPATCEPIQSVFFFSGDKYYRVNLRTRRVDTVDPPYPRSIAQYWLGCPAPGHL", "modifications": "Vitronectin-derived Recombinant Protein (RCP-21)"}}, "key": {"[1]": {"tested_on": "iPS cells", "assay": "Growth evaluation, growth curves over 8 days", "type": "cell-based, human", "protocol": "The iPS cells collected in the same manner as in <Cell adhesiveness evaluation 1> were seeded into a 96-well plate, onto which RCP-1, RCP-21, and natural human vitronectin were adsorbed, at a ratio of 250 cells/well and cultured for 8 days in a 5% CO2 incubator at 37° C. The number of adhesive cells after different days of culture was measured in the same manner as in <Cell adhesiveness evaluation 1>, thereby obtaining growth curves. […] In FIG. 2, a black rhombus indicates a case using RCP-1, and a black square indicates a case using RCP-21.\nFrom the increase and decrease in the obtained number of cells, the doubling time was calculated. As a result, it was confirmed that it takes 46.4±2.1 hours for the number of cells to be doubled in a case where RCP-1 is used, and 67.7±2.1 hours in a case where RCP-21 is used."}, "[2]": {"tested_on": "human iPS cells (\"Tic\")", "assay": "Cell adhesiveness evaluation 1 (ALP activity of adhesive iPS cells)", "type": "cell-based", "details": "added amount 200 pmol/cm^2; 30,000 cells/well, 24 hours; natural vitronectin (sample 15) = 100%; n=3", "method_in_brief": "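Peptides and controls were adsorbed onto wells for 2 h at 37 °C. Single-cell human iPS cells in TeSR2 with 10 μM Y-27362 were seeded at 30,000 cells/well. After 24 h, non-adherent cells were washed off and adherent cells fixed; cell number came from ALP activity via a calibration curve. Adhesion is expressed relative to natural vitronectin (100%), n=3.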"}, "[3]": {"tested_on": "iPS cells", "assay": "Evaluation of maintenance of undifferentiated state (reference examples)", "type": "cell-based, human", "protocol": "iPS cells collected in the same manner as in <Cell adhesiveness evaluation 1> were suspended in TeSR2. The iPS cells were seeded into 6-well plate (Tissue culture-treated, Falcon), onto which each of the samples 1, 2, 5, 6, and 7 used in <Cell adhesiveness evaluation 1> was adsorbed in the same manner as in <Cell adhesiveness evaluation 1>, and cultured in a CO2 incubator at 37° C. Except for the day after the seeding, the medium was replaced every day. In the same method as described above, the cells were subcultured every six days.\nAfter being cultured for 1 month under the conditions described above, the cells were immobilized using 4% paraformaldehyde and treated with 1% Triton-X/PBS so as to enhance the membrane permeability. After the cells were subjected to a blocking treatment using an Image IT Signal Enhancer (Invitrogen), an anti-human NANOG antibody (AF 1997, R&D Systems, Inc.), an Alexa Fluor 555 binding rabbit anti-goat IgG antibody (Invitrogen), and DAPI (4′,6-diamidino-2-phenylindole, Dojindo Molecular Technologies, Inc.) were added thereto for labeling, and the cells were imaged using a fluorescence microscope.\nFIGS. 3A and 4A show the iPS cells cultured on RCP-1; FIGS. 3B and 4B show the iPS cells cultured on RCP-11; FIGS. 3C and 4C show the iPS cells cultured on natural human vitronectin; FIGS. 3D and 4D show the iPS cells cultured on rLaminin-5; and FIGS. 3E and 4E show the iPS cells cultured on rLaminin-511. The scale bar in the images indicates […]. In FIGS. 3A to 3E, the images on the left side are full images of the colony, and the images on the right side are magnified images. In FIGS. 4A to 4E, the images on the left side are images of the cells stained with DAPI, and the images on the right side are images of the cells stained with an anti-NANOG antibody. The scale bar in FIGS. 3A to 4E indicates 200 μm."}}, "data": [{"molecule": "B1", "values": [{"measurement": "doubling time", "setting": "[1]; 250 cells/well, cultured for 8 days", "result": "67.7 ± 2.1", "unit": "h"}, {"measurement": "number of cells on Day 8 of culture as fraction of the number with RCP-1", "setting": "[1]; FIG. 2", "result": "about ⅓"}, {"measurement": "Cell adhesion rate (%)", "setting": "[2]", "result": "93.5 ± 7.9", "unit": "%"}, {"measurement": "form of iPS cell colony", "setting": "[3]; TeSR2, subcultured every six days, FIGS. 3A to 3E", "result": "form specific to undifferentiated cells"}, {"measurement": "NANOG expression", "setting": "[3]; cultured for 1 month in TeSR2, anti-NANOG staining, FIGS. 4A to 4E", "result": "strongly expressed NANOG in the entirety of the colony"}]}]}
